What follows are molecules tested on T-cells in PBMCs from MS patients and healthy controls (assay: FluoroSpot with full-length recombinant antigens (52 patients, 24 controls), with ROC analysis).
Assay type: cell-based, human
Procedure: FIGS. 8A-8D. IFNγ/IL-22/IL-17 Fluorospot assay comparing T-cell activation in multiple sclerosis (MS)-patients and healthy controls when stimulated with full-length recombinant antigens (FABP7, PROK2, RTN3, SNAP91). Fifty-two Multiple Sclerosis patients and 24 healthy controls were tested for T-cell activation towards recombinant full-length versions of the autoantigens in a FluoroSpot assay. FIG. 8A: FABP7 isoform 2 (SEQ ID NO:1). FIG. 8B: PROK2 (SEQ ID NO:2). FIG. 8C: RTN3 SEQ ID NO:3. FIG. 8D: SNAP91 SEQ ID NO: 4. P-values calculated using Mann-Whitney test. Staples denote mean and C195%.
FIGS. 9A-9E. ROC-curves for the full-length antigens, Sensitivity and specificity when used as a diagnostic marker. Individually, the four antigens perform similarly as diagnostic markers for disease, all reaching a sensitivity of ˜50% with a specificity of 95%. FIG. 9A: FABP7 isoform 2. FIG. 9B: PROK2. FIG. 9C: RTN3. FIG. 9D: SNAP91. FIG. 9E: Using a combination of all four antigens as a diagnostic test achieves higher sensitivity and specificity. Specifically, utilizing the ratio of IL-17 divided by the square root of IFNγ response towards the mean response to the four antigens achieves a sensitivity of 70% with a specificity of >95%.
The full-length proteins can also be used in a similar way, see FIG. 9A-D. Utilizing all four full-length antigens, using each individual's average response to the four, increases the sensitivity and specificity further (FIG. 9E). Combining different readouts, such as analyzing the ratio between IL-17 and IFNγ, can increase the sensitivity of the test further (FIG. 9E, Table 2).
Recombinant full-length versions of the antigens FABP7 (SEQ ID NO: 1), PROK2 (SEQ ID NO: 2), RTN3 (SEQ ID NO: 3), SNAP91 (SEQ ID NO: 4) were produced in E. coli in house according to standard recombinant protein production protocols and purified via his-tag purification. 52 patients and 24 controls were tested for reactivity towards the antigens in an IFNγ/IL17/IL22 FluoroSpot assay as previously described.
A second, larger, cohort was collected in order to test the full length antigens. In this cohort, 52 patients and 24 healthy controls were included. The inclusion/exclusion criteria (table 5) as well as the sampling and PBMCs isolation were the same.
The antigens (FABP7, PROK2, RTN3 and SNAP91) picked out from the screening of PrESTs described in Example 1 and 2 were selected for further testing on the full-length versions of the protein. The full-length antigens were produced by transforming plasmids encoding the antigen and a […] into Escherichia coli. After growth, the bacteria were lysed and the protein purified from the supernatant of the bacterial lysis via 6× histidine-tag purification on an immobilized metal affinity chromatography-column. The antigens were subsequently coupled to beads and endotoxin-washed as previously described.
The FluoroSpot assay was performed under sterile conditions in a cell culture hood. The cells were thawed in a water bath at 37° C. and washed with cRPMI (RPMI 1640 medium, Sigma Aldrich, containing 10% fetal calf serum, 1% 200 mM L-Glutamine, 1% 10,000 U/ml Penicillin-10 mg/ml Streptomycin). The cells were counted manually using a light-microscope (Nikon TMS-F, Nikon, Japan) and subsequently diluted in cRPMI to a concentration of 2.5×10^6 cells/ml. The FluoroSpot plate (Human IFNγ/IL-22/IL-17A FluoroSpot kit, pre-coated, Mabtech, Sweden) was washed with PBS and then blocked with cRPMI for 30 min at room temperature. The blocking cRPMI was then discarded and 100 μl fresh cRPMI was added to each well of the FluoroSpot plate. Antigen (3×10^6 beads) was added to each well in duplicates according to a specific layout. In accordance to the manufacturer's protocol, anti-CD3 was used as a positive control. Both uncoupled beads and media without stimuli was used as negative controls. PBMCs (250,000 cells) in 100 μl cRPMI were added to each well (125,000 cells for the anti-CD3). […]

Row | Molecule | reactivity of MS patients PBMCs versus controls, IFNγ | reactivity of MS patients PBMCs versus controls, IL17 and IL22
1 | FABP7 isoform 2. Full length: recombinant full-length human FABP7 isoform 2 (SEQ ID NO: 1) produced in E. coli; in b59 "FABP7" refers to PrEST data (protein, listed as Homo sapiens) MVEAFCATWKLTNSQNFDEYMKALGVGFATRQVGNVTKPTVIISQEGDKVVIRTLSTFKNTEISFQLGEEFDETTADDRNCKSVVSLDGDKLVHIQKWDGKETNFVREIKDGKMVMVSNDNSPFFLVFFSSPHTSHLLPSSSLLLPFFLLPSFFNNTSLARFFNYM | significantly higher reactivity | significantly higher reactivity
2 | RTN3: recombinant full-length RTN3 (SEQ ID NO: 3) produced in E. coli (protein, listed as Homo sapiens) MAEPSAATQSHSISSSSFGAEPSAPGGGGSPGACPALGTKSCSSSCADSFVSSSSSQPVSLFSTSQEGLSSLCSDEPSSEIMTSSFLSSSEIHNTGLTILHGEKSHVLGSQPILAKEGKDHLDLLDMKKMEKPQGTSNNVSDSSVSLAAGVHCDRPSIPASFPEHPAFLSKKIGQVEEQIDKETKNPNGVSSREAKTALDADDRFTLLTAQKPPTEYSKVEGIYTYSLSPSKVSGDDVIEKDSPESPFEVIIDKAAFDKEFKDSYKESTDDFGSWSVHTDKESSEDISETNDKLFPLRNKEAGRYPMSALLSRQFSHTNAALEEVSRCVNDMHNFTNEILTWDLVPQVKQQTDKSSDCITKTTGLDMSEYNSEIPVVNLKTSTHQKTPVCSIDGSTPITKSTGDWAEASLQQENAITGKPVPDSLNSTKEFSIKGVQGNMQKQDDTLAELPGSPPEKCDSLGSGVATVKVVLPDDHLKDEMDWQSSALGEITEADSSGESDDTVIEDITADTSFENNKIQAEKPVSIPSAVVKTGEREIKEIPSCEREEKTSKNFEELVSDSELHQDQPDILGRSPASEAACSKVPDTNVSLEDVSEVAPEKPITTENPKLPSTVSPNVFNETEFSLNVTTSAYLESLHGKNVKHIDDSSPEDLIAAFTETRDKGIVDSERNAFKAISEKMTDFKTTPPVEVLHENESGGSEIKDIGSKYSEQSKETNGSEPLGVFPTQGTPVASLDLEQEQLTIKALKELGERQVEKSTSAQRDAELPSEEVLKQTFTFAPESWPQRSYDILERNVKNGSDLGISQKPITIRETTRVDAVSSLSKTELVKKHVLARLLTDFSVHDLIFWRDVKKTGFVFGTTLIMLLSLAAFSVISVVSYLILALLSVTISFRIYKSVIQAVQKSEEGHPFKAYLDVDITLSSEAFHNYMNAAMVHINRALKLIIRLFLVEDLVDSLKLAVFMWLMTYVGAVFNGITLLILAELLIFSVPIVYEKYKTQIDHYVGIARDQTKSIVEKIQAKLPGIAKKKAE | significantly higher reactivity | significantly higher reactivity
3 | SNAP91: recombinant full-length SNAP91 (SEQ ID NO: 4) produced in E. coli (protein, listed as Homo sapiens) MSGQTLTDRIAAAQYSVTGSAVARAVCKATTHEVMGPKKKHLDYLIQATNETNVNIPQMADTLFERATNSSWVVVFKALVTTHHLMVHGNERFIQYLASRNTLFNLSNFLDKSGSHGYDMSTFIRRYSRYLNEKAFSYRQMAFDFARVKKGADGVMRTMAPEKLLKSMPILQGQIDALLEFDVHPNELTNGVINAAFMLLFKDLIKLFACYNDGVINLLEKFFEMKKGQCKDALEIYKRFLTRMTRVSEFLKVAEQVGIDKGDIPDLTQAPSSLMETLEQHLNTLEGKKPGNNEGSGAPSPLSKSSPATTVTSPNSTPAKTIDTSPPVDLFATASAAVPVSTSKPSSDLLDLQPDFSSGGAAAAAAPAPPPPAGGATAWGDLLGEDSLAALSSVPSEAQISDPFAPEPTPPTTTAEIATASASASTTTTVTAVTAEVDLFGDAFAASPGEAPAASEGAAAPATPTPVAAALDACSGNDPFAPSEGSAEAAPELDLFAMKPPETSVPVVTPTASTAPPVPATAPSPAPAVAAAAAATTAATAAATTTTTTSAATATTAPPALDIFGDLFESTPEVAAAPKPDAAPSIDLFSTDAFSSPPQGASPVPESSLTADLLSVDAFAAPSPATTASPAKVDSSGVIDLFGDAFGSSASEPQPASQAASSSSASADLLAGFGGSFMAPSPSPVTPAQNNLLQPNFEAAFGTTPSTSSSSSFDPSVFDGLGDLLMPTMAPAGQPAPVSMVPPSPAMAASKALGSDLDSSLASLVGNLGISGTTTKKGDLQWNAGEKKLTGGANWQPKVAPATWSAGVPPSAPLQGAVPPTSSVPPVAGAPSVGQPGAGFGMPPAGTGMPMMPQQPVMFAQPMMRPPFGAAAVPGTQLSPSPTPASQSPKKPPAKDPLADLNIKDFL | apart from IFNγ for SNAP91 | significantly higher reactivity
4 | PROK2: recombinant full-length PROK2 (SEQ ID NO: 2) produced in E. coli (protein, listed as Homo sapiens) MRSLCCAPLLLLLLLPPLLLTPRAGDAAVITGACDKDSQCGGGMCCAVSIWVKSIRICTPMGKLGDSCHPLTRKNNFGNGRQERRKRKRSKRKKEVPFFGRRMHHTCPCLPGLACLRTSFNRFICLAQK | significantly higher reactivity | significantly higher reactivity

The molecules below were run against HLA DRB5 01:01 (assay: competitive HLA binding assay (legend: - No binding)).

Row | binding result | Molecule
5 | no binding | CTPMGKLGDSCHPLT (also called Pool 1 PROK2) [PROK2 peptide #7 (Aa 58-72 of SEQ ID NO: 2)]
6 | no binding | QVGNVTKPTVIISQE (also called Pool 2 FABP7) [FABP7 peptide #7 (Aa 32-46 of SEQ ID NO: 1)]
7 | no binding | HTCPCLPGLACLRTS (also called Pool 3 PROK2) [PROK2 peptide #19 (Aa 105-119 of SEQ ID NO: 2)]
8 | no binding | KLGDSCHPLTRKNNF (also called Pool 2 PROK2) [PROK2 peptide #8 (Aa 63-77 of SEQ ID NO: 2)]
9 | no binding | IISQEGDKVVIRTLS (also called Pool 2 FABP7) [FABP7 peptide #9 (Aa 42-56 of SEQ ID NO: 1)]
10 | no binding | EISFQLGEEFDETTA (also called Pool 3 FABP7) [FABP7 peptide #13 (Aa 62-76 of SEQ ID NO: 1)]
11 | no binding | GNGRQERRKRKRSKR (also called Pool 2 PROK2) [PROK2 peptide #11 (Aa 78-92 of SEQ ID NO: 2)]
12 | no binding | ACDKDSQCGGGMCCA (also called Pool 1 PROK2) [PROK2 peptide #2 (Aa 33-47 of SEQ ID NO: 2)]
13 | no binding | IRTLSTFKNTEISFQ (also called Pool 2 FABP7) [FABP7 peptide #11 (Aa 52-66 of SEQ ID NO: 1)]
14 | no binding | SQCGGGMCCAVSIWV (also called Pool 1 PROK2) [PROK2 peptide #3 (Aa 38-52 of SEQ ID NO: 2)]
15 | no binding | KRSKRKKEVPFFGRR (also called Pool 2 PROK2) [PROK2 peptide #13 (Aa 88-102 of SEQ ID NO: 2)]
16 | no binding | ERRKRKRSKRKKEVP (also called Pool 2 PROK2) [PROK2 peptide #12 (Aa 83-97 of SEQ ID NO: 2)]
17 | no binding | TFKNTEISFQLGEEF (also called Pool 2 FABP7) [FABP7 peptide #12 (Aa 57-71 of SEQ ID NO: 1)]
18 | no binding | TKPTVIISQEGDKVV (also called Pool 2 FABP7) [FABP7 peptide #8 (Aa 37-51 of SEQ ID NO: 1)]
19 | no binding | LGEEFDETTADDRNC (also called Pool 3 FABP7) [FABP7 peptide #14 (Aa 67-81 of SEQ ID NO: 1)]
20 | no binding | GRRMHHTCPCLPGLA (also called Pool 3 PROK2) [PROK2 peptide #18 (Aa 100-114 of SEQ ID NO: 2)]

Reference: patent US20240158455A1, “MULTIPLE SCLEROSIS ASSOCIATED AUTOANTIGENS, AND USE THEREOF IN THERAPY AND DIAGNOSIS” (NEOGAP Therapeutics AB, priority 2017, published 2024)
